Data on two molecules can be found in patent US20170059578A1 (ROCHE SEQUENCING SOLUTIONS, published 2017).

The target of this test is T1, streptavidin (UniProt P22629 37-163, limits assumed).
T1 construct: Applied in solution to the peptide array and detected by fluorescence; also called streptavidin receptor; receptor
Put plainly: peptide array, fluorescence signal of bound streptavidin.

T1 sequence (P22629 37-163 limits assumed): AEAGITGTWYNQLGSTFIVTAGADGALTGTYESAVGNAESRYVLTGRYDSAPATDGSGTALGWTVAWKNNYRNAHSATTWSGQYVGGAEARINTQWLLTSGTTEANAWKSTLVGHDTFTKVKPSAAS

B1: … (SEQ ID NO:2) with deletion of the Met at the 6th position from the N-terminus (peptide)
peptide: GWTHPFEQKG
notes: Deletion made by design ([-]) or imitated by synthesis conditions [1]; (solvent alone) and [2]; (no reagent); also called deletion control peptide; synthesis conditions [1] and [2]
With B1, the binding result is “no binding”.

B2: … (SEQ ID NO:1) with deletion of the His at the 10th position from the N-terminus (peptide)
peptide: GFEDYLGEYG
notes: Deletion made by design ([-]) or imitated by synthesis conditions [1]; (solvent alone) and [2]; (no reagent); also called His deletion peptide; synthesis conditions [1] and [2]
Consider B2, for which the binding result is “no binding”.
